Measurements published in patent US20160002318A1.

Columns and labels:
Test in all cases: cell-based or functional assay
[1] = target: HA of influenza B virus B/Brisbane/60/2008 (live virus) (influenza B virus B/Brisbane/60/2008)
[2] = target: HA of influenza B virus B/Florida/04/2006 (live virus) (influenza B virus B/Florida/04/2006)
[3] = target: HA of influenza B virus B/Harbin/7/1994 (live virus) (influenza B virus B/Harbin/7/1994)
[4] = target: HA of influenza B virus B/Malaysia/2506/2004 (live virus) (influenza B virus B/Malaysia/2506/2004)

Binder | HI titers [1] | VNA titers [1] | HI titers [2] | VNA titers [2] | HI titers [3] | VNA titers [3] | HI titers [4] | VNA titers in µg/ml (*assay was done with 25 TCIDs) [4]
CR8059 (antibody, V domains shown) VH: EVQLVQSGAEVKKPGASVRVSCRASGYIFTESGITWVRQAPGQGLEWMGWISGYSGDTKYAQKLQGRVTMTKDTSTTTAYMELRSLRYDDTAVYYCARDVQYSGSYLGAYYFDYWSPGTLVTVSS VL: SYVLTQPPSASGTPGQRVTISCSGSSSNIGTNYVYWYQQFPGTAPKLLIYRSYQRPSGVPDRFSGSKSGSSASLAISGLQSEDEADYYCATWDDSLNGWVFGGGTKLTVL | > 50 µg/mL | 4.55 µg/mL | > 50 µg/mL | 3.23 µg/mL | > 50 µg/mL | 2.39 µg/mL | > 50 µg/mL | 17.7 µg/mL
CR8071 (antibody, V domains shown) VH: QVQLVQSGAEVKKPGASVRVSCRASGYIFTESGITWVRQAPGQGLEWMGWISGYSGDTKYAQKLQGRVTMTKDTSTTTAYMELRSLRYDDTAVYYCARDVQYSGSYLGAYYFDYWSPGTLVTVSS VL: QSVLTQPPSASGTPGQRVTISCSGSSSNIGTNYVYWYQQFPGTAPKLLIYRSYQRPSGVPDRFSGSKSGSSASLAISGLQSEDEADYYCATWDDSLDGWVFGGGTKLTVLR | > 50 µg/mL | 3.72 µg/mL | > 50 µg/mL | 2.12 µg/mL | > 50 µg/mL | 2.34 µg/mL | > 50 µg/mL | 14.9 µg/mL
CR11036 (antibody, V domains shown) VH: EVQLVQSGAEVKKPGASVTVSCKASGYAFTSYYLHWVRQAPGQGLEWMGIMNLHGGSTTYAQKFQGRVTMTRDTSTRTVYMELSGLRSEDSAVYYCARESPDSSGYPGYYGMDVWGQGTTVTVSS VL: EIVLTQSPGTLSLSPGERATLSCRASQSVSSDFFAWYQQKRGQTPTLLIYGTSTRATGIPDRFSGSGSGTDFTLSVARLEPEDFAVYYCQQYGSSTWTFGQGTKVEIK | > 10 µg/mL | < 0.14 µg/mL | > 10 µg/mL | < 0.06 µg/mL | – | 0.02 µg/mL | – | 0.22 µg/mL
CR11038 (antibody, V domains shown) VH: EVQLVESGAEVKKPGASVKVSCKASGYAFTSYYLHWVRQAPGQGLEWMGIMNPHGGSTTYAQKFQGRVTMTRDTSTSTVYMELSSLRSEDTAVYYCARESPDSSGYPGYYGMDVWGQGTTVTVSS VL: SYELTQPPSASGTPGQRVTMSCSGSRSNIGSNPVSWFQQLPGMVPKLLIYTNDQRPSGVPDRFSGSKSGPSASLAISGLQSEDEADYYCAAWDDSLKGWVFGGGTKLTVL | 0.31 µg/mL | 0.55 µg/mL | 1.25 µg/mL | < 0.06 µg/mL | – | 0.05 µg/mL | – | 2.1 µg/mL
CR11039 (antibody, V domains shown) VH: EVQLVQSGAEVKKPGESVKISCKTSGYAFTGYGISWVRQAPGQGLEWMGWINTYKFNTNYAQNLQGRVTMTIDTSTSAAYMELRSLRYEDTAVYFCARDWAGPFGNAFDVWGQGTMVTVSS VL: IQMTQSPSSLSASIGDRVAITCQASQDISDYLNWYQQQPGKAPKLLLYGASNLETGVPSRFSGSGSGTDFTFTISSLQPEDIATYYCQQYGNLPPTFGGGTKLEIK | 0.44 µg/mL | < 0.14 µg/mL | 0.63 µg/mL | < 0.06 µg/mL | – | 0.02 µg/mL | – | 0.06 µg/mL
CR8031 (antibody, V domains shown) VH: EVQLVESGGGLVQPGRSLRLSCAASGFTFDEYIMHWVRQAPGKGPEWVAGINWKGNFMGYADSVQGRFTISRDNAKNSLYLQMNSLRADDTALYYCAKDRLESSAMDILEGGTFDIWGQGTMVT VL: QSALTQPASVSGSPGQSITISCTGTSSDVGGYNYVSWYQQHPGKAPKLMIYDVSSRPSGVSNRFSGSKSGDTASLSISGLQAEDEADYYCSSYTSSSTHVFGTGTKVTVL | – | – | – | 0.88 µg/mL | – | 1.24 µg/mL | – | > 50 µg/mL
CR8033 (antibody, V domains shown) VH: EVQLVETGGGLVQPGRSLRLSCAASGFSFDEYTMHWVRQAPGKGLEWVAGINWKGNFMGYADSVQGRFTISRDNGKNSLYLQMNSLRAEDTALYYCAKDRLESSAMDILEGGTFDIWGQGTMVT VL: EIVLTQSPGTLSLSPGERATLSCRASQSVSSSYLAWYQQKPGQAPRLLIYGASTRATGIPARFSGSGSGTDFTLTISRLEPEDLAVYYCQQYGSSPWTFGQGTKVEIK | > 50 µg/mL | 5.95 µg/mL | 0.22 µg/mL | 0.02 µg/mL | 0.39 µg/mL | 0.03 µg/mL | > 50 µg/mL | 0.88 µg/mL
CR11035 (antibody, V domains shown) VH: QVQLVQSGAEVKKPGSSVKVSCKTSGYAFNGYGISWVRQAPGQGLEWVAWINTYKVNTHYAQNLRGRVTVSIDTSTTTAYMELRSLRSDDTAVYYCARDWGGPFGNAFDFWGQGTMVTVSS VL: DIQMTQSPSSLAASIGDSVTITCRASQSVGSYLNWYQQKPGKAPKLLIYGASNVQSGVPSRFSGSESGTESTLTINNLQPEDSATYYCQQSYSTPRTFGQGTKVEIK | 0.26 µg/mL | 0.93 µg/mL | > 10 µg/mL | < 0.06 µg/mL | – | 0.16 µg/mL | – | 0.53 µg/mL
CR8034 (antibody, V domains shown) VH: EVQLVETGGGLVQPGRSLRLSCAASGFTFDEYIMHWVRQAPGKGPEWVAGINWKGNFMGYADSVQGRFTISRDNAKNSLYLQMNSLRADDTALYYCAKDRLESSAMDILEGGTFDIWGQGTMVTVSS VL: DIQMTQSPSSLSASVGDRVTITCRASQGIRNDLGWYQQKPGKAPKRLIYAASSLQSGVPSRFSGSGSGTDFTLTISSLQPEDFATYYCQQANTYPLTFGGGTKLEIK | – | – | – | 0.12 µg/mL | – | 0.29 µg/mL | – | 2.31 µg/mL
CR8035 (antibody, V domains shown) VH: EVQLVESGGGLVQPGRSLRLSCAASGFTFDEYIMHWVRQAPGKGPEWVAGINWKGNFMGYADSVQGRFTISRDNAKNSLYLQMNSLRADDTALYYCAKDRLESSAMDILEGGTFDIWGQGTMVTVSS VL: SSELTQDPAVSVALGQTVRITCQGDSLRSYYASWYQQKPGQAPVLVIYGKNNRPSGIPDRFSGSSSRNTASLTITGAQAEDEADYYCDSRDSSGTHYVFGGGTKVTVL | – | – | – | 0.66 µg/mL | – | 0.66 µg/mL | – | 4.46 µg/mL
CR8032 (antibody, V domains shown) VH: EVQLVESGGGLVQPGRSLRLSCAASGFSFDEYIMHWVRQAPGKGLEWVAGINWKGNFMGYADSVQGRFTISRDNGKNSLYLQMNSLRAEDTALYYCAKDRLESSAMDILEGGTFDIWGQGTMVTVSS VL: QSALTQPASVSGSPGQSITISCTGTRRDVGDYKYVSWYQQHPGKAPKLMIYDVSNRPSGVSNRFSGSKSGTTASLTISGLQAEDEADYYCSSYTTSNTRVFGGGTKLTVL | – | – | – | 0.69 µg/mL | – | 0.69 µg/mL | – | 3.88 µg/mL
CR10023 (antibody, V domains shown) VH: EVQLVETGGGLVQPGRSLRLSCAASGFTFDDYAMHWVRQAPGKGLEWVSGINWVSTTMGYADSVKGRFTISRDNAKNSLYLQMNSLRAEDTALYYCAKDRLESAAIDILEGGTFDIRGQGTMVTVSS VL: QSALTQPPSASGSPGQSVTISCTGTSSDVGGYNYVSWYQQHPGKAPKLMIYDVSKRPSGVPDRFSGSKSGNTASLTISGLQAEDEAEYYCSSYASGSTYVFGTGTKVTVL | > 50 µg/mL | 7.07 µg/mL | 1.56 µg/mL | < 0.55 µg/mL | 1.1 µg/mL | 0.26 µg/mL | > 50 µg/mL | 12.5 µg/mL
